From PMC7121760

Columns and labels:
[1] = molecular target: α1Cx43 (connexin 43), full-length, membrane-integrated (UniProt P08050); assay: sucrose gradient velocity sedimentation
[2] = molecular target: β1Cx32 (connexin 32), full-length, membrane-integrated (UniProt P08033); assay: sucrose gradient velocity sedimentation

Row | stoichiometry N [1] | stoichiometry N [2] | Substance
1 | 6 |  | α1Cx43 (connexin 43), full-length, membrane-integrated (from UniProt P08050 1-382) (natural protein)
2 |  | 6 | β1Cx32 (connexin 32), full-length, membrane-integrated (from UniProt P08033 1-283) (natural protein)
